Test results as given in patent publication US20210403527A1 (Regeneron, published 2021).
Values belong to the binder of their own block, whether it stands above or below them.

Columns and labels:
Test in all cases: cell-based or functional assay
[1] = biological target: HLA-A2/NY-ESO-1 (157-165) complex on cells (human)
[2] = biological target: single chain HLA-A2 presenting an NY-ESO-1 (157-165) peptide, overexpressed on IM9 cells
[3] = biological target: HLA-A2/NY-ESO-1 (157-165) complex on cells (human); remark: listed apart in the source

Signal to Noise (S/N) ratio (RLU to peptide pulsed APCs divided by RLU to non-pulsed APCs), AP-1 luciferase reporter T cells [1]: 5.1 ratio
B1: TCR188 (TCR, V domains shown)
V domain 1: DAKTTQPNSMESNEEEPVHLPCNHSTISGTDYIHWYRQLPSQGPEYVIHGLTSNVNNRMASLAIAEDRKSSTLILHRATLRDAAVYYCILNTGTASKLTFGTGTRLQVTL
V domain 2: GAVVSQHPSWVICKSGTSVKIECRSLDFQATTMFWYRQFPKQSLMLMATSNEGSKATYEQGVEKDKFLINHASLTLSTLTVTSAHPEDSSFYICSAKEGTEAFFGQGTRLTVV

Signal to Noise (S/N) ratio (RLU to peptide pulsed APCs divided by RLU to non-pulsed APCs), AP-1 luciferase reporter T cells [1]: 15.5 ratio
B4: TCR050 (TCR, V domains shown)
V domain 1: DAKTTQPNSMESNEEEPVHLPCNHSTISGTDYIHWYRQLPSQGPEYVIHGLTSNVNNRMASLAIAEDRKSSTLILHRATLRDAAVYYCILREGNNDMRFGAGTRLTVKP
V domain 2: NAGVTQTPKFRILKIGQSMTLQCAQDMNHNYMYWYRQDPGMGLKLIYYSVGAGITDKGEVPNGYNVSRSTTEYFPLRLELAAPSQTSVYFCASSWTDNQPQHFGDGTRLSIL

Signal to Noise (S/N) ratio (RLU to peptide pulsed APCs divided by RLU to non-pulsed APCs), AP-1 luciferase reporter T cells [1]: 11.2 ratio
B5: TCR063 (TCR, V domains shown)
V domain 1: QKEVEQNSGPLSVPEGAIASLNCTYSDRGSQSFFWYRQYSGKSPELIMSIYSNGDKEDGRFTAQLNKASQYVSLLIRDSQPSDSATYLCAVNILASGGSYIPTFGRGTSLIVHP
V domain 2: ETGVTQTPRHLVMGMTNKKSLKCEQHLGHNAMYWYKQSAKKPLELMFVYNFKEQTENNSVPSRFSPECPNSSHLFLHLHTLQPEDSALYLCASSHGTGYNYGYTFGSGTRLTVV

Further lines, the binder ahead of its results:

B2: composite TCR 001 (human variable domains, mouse constant domains) (TCR, V domains shown)
V domain 1: DAKTTQPNSMESNEEEPVHLPCNHSTISGTDYIHWYRQLPSQGPEYVIHGLTSNVNNRMASLAIAEDRKSSTLILHRATLRDAAVYYCILRPDSWGKFQFGAGTQVVVTP
V domain 2: NAGVTQTPKFRILKIGQSMTLQCAQDMNHNYMYWYRQDPGMGLKLIYYSVGAGITDKGEVPNGYNVSRSTTEYFPLRLELAAPSQTSVYFCASSYSGGSPLHFGNGTRLTVTE
percent cytotoxicity (calcein release), IM-9++ target cells, T cell:target cell ratio 0.78, Mean [2]: 13.3%
percent cytotoxicity (calcein release), IM-9++ target cells, T cell:target cell ratio 1.56, Mean [2]: 25.6%
percent cytotoxicity (calcein release), IM-9++ target cells, T cell:target cell ratio 3.125, Mean [2]: 43.6%
percent cytotoxicity (calcein release), IM-9++ target cells, T cell:target cell ratio 6.25, Mean [2]: 57.3%
percent cytotoxicity (calcein release), IM-9++ target cells, T cell:target cell ratio 12.5, Mean [2]: 65.9%
percent cytotoxicity (calcein release), IM-9++ target cells, T cell:target cell ratio 25, Mean [2]: 68.7%
percent cytotoxicity (calcein release), IM-9++ target cells, T cell:target cell ratio 50, Mean [2]: 70%
percent cytotoxicity (calcein release), IM-9 target cells, T cell:target cell ratio 0.78, Mean [3]: 8.3%
percent cytotoxicity (calcein release), IM-9 target cells, T cell:target cell ratio 1.56, Mean [3]: 16.2%
percent cytotoxicity (calcein release), IM-9 target cells, T cell:target cell ratio 3.125, Mean [3]: 28.9%
percent cytotoxicity (calcein release), IM-9 target cells, T cell:target cell ratio 6.25, Mean [3]: 44.4%
percent cytotoxicity (calcein release), IM-9 target cells, T cell:target cell ratio 12.5, Mean [3]: 55.6%
percent cytotoxicity (calcein release), IM-9 target cells, T cell:target cell ratio 25, Mean [3]: 65.4%
percent cytotoxicity (calcein release), IM-9 target cells, T cell:target cell ratio 50, Mean [3]: 72.6%

B3: TCR001 (TCR, V domains shown)
V domain 1: DAKTTQPNSMESNEEEPVHLPCNHSTISGTDYIHWYRQLPSQGPEYVIHGLTSNVNNRMASLAIAEDRKSSTLILHRATLRDAAVYYCILRPDSWGKFQFGAGTQVVVTP
V domain 2: NAGVTQTPKFRILKIGQSMTLQCAQDMNHNYMYWYRQDPGMGLKLIYYSVGAGITDKGEVPNGYNVSRSTTEYFPLRLELAAPSQTSVYFCASSYSGGSPLHFGNGTRLTVT
Signal to Noise (S/N) ratio (RLU to peptide pulsed APCs divided by RLU to non-pulsed APCs), AP-1 luciferase reporter T cells [1]: 25.4 ratio
